Residue numbers refer to the chain shown, from its start. Numbers in names are those of the source.

Results on six proteins are retold here after patent publication US20070093443.

For one series, the target named is T1, Complement C2 (human).
T1 chain: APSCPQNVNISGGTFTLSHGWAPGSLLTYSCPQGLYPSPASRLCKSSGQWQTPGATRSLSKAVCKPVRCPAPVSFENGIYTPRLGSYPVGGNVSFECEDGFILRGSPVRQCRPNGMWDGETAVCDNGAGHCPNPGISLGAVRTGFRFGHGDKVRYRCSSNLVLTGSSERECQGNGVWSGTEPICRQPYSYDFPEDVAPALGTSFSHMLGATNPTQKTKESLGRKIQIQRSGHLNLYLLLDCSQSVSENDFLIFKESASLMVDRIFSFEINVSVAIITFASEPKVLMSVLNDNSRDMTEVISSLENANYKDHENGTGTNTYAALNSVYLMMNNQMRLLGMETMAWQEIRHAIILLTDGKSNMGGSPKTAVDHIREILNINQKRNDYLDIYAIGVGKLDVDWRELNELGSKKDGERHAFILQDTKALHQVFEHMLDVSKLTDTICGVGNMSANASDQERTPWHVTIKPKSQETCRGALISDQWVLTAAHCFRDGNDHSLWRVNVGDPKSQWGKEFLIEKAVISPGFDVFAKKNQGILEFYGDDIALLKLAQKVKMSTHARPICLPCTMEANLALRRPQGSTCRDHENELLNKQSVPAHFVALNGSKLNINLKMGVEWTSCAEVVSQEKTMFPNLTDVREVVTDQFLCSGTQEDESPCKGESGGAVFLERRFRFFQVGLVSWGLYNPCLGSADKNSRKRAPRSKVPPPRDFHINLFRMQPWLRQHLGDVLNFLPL

Another series has as its target T2, Ac-SLGR-AMC.
T2 chain: SLGR

The target of series [1] is Complement component C7 (human).
In series [2] the target is Complement component C8 (human).
Series [3] has as its target Complement component C6 (human).
The target in series [4] is Complement component C9 (human).
The target of a further series is T3, Complement C4 (human).
T3 chain 1: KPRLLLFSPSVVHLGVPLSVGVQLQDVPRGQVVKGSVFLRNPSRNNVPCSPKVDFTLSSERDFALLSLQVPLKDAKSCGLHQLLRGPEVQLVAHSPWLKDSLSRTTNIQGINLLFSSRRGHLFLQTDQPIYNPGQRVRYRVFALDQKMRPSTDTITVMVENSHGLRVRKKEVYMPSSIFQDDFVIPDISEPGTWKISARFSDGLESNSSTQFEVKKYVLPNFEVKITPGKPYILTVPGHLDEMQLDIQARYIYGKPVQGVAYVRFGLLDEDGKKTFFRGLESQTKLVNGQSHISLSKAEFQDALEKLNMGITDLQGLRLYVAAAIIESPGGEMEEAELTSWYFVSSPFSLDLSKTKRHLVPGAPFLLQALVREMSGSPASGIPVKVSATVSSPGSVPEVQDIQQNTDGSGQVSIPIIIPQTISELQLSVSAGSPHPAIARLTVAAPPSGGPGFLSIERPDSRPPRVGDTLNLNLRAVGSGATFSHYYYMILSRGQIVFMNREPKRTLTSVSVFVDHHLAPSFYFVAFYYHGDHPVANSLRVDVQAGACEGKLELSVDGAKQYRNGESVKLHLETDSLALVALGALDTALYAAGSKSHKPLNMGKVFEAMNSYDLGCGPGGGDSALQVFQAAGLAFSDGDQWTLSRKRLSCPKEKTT
T3 chain 2: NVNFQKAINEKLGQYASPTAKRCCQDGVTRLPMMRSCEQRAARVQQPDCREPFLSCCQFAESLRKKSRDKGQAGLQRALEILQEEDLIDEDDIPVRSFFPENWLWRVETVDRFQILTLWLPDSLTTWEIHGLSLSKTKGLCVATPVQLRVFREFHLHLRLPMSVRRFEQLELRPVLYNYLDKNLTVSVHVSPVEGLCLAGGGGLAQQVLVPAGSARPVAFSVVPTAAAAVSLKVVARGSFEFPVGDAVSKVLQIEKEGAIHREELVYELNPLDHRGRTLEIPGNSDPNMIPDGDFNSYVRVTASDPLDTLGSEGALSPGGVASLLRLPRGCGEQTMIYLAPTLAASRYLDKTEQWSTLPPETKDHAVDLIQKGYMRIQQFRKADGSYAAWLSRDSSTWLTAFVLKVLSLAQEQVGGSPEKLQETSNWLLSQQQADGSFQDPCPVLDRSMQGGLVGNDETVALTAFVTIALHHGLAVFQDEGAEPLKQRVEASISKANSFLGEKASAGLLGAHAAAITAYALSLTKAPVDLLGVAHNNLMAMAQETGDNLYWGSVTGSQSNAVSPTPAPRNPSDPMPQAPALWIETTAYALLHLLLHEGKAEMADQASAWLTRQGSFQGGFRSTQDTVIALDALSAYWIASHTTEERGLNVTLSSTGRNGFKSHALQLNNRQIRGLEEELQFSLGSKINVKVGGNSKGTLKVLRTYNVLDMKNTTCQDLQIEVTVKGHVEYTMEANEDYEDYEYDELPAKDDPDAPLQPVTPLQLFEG
T3 chain 3: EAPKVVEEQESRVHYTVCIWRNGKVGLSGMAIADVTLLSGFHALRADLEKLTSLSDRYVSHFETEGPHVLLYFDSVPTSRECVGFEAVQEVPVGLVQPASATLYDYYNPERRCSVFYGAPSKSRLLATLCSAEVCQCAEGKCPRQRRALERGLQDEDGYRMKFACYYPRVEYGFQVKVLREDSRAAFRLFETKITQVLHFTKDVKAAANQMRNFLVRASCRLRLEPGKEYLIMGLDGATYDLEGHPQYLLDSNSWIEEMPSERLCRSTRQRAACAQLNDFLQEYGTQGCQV

The target of the next series is T4, Ac-RQAR-AMC.
T4 chain: RQAR

Another series has as its target T5, Ac-GLAR-AMC.
T5 chain: GLAR

Complement C5 (human), sequence (chain, as listed by the source, chain 1 of 2): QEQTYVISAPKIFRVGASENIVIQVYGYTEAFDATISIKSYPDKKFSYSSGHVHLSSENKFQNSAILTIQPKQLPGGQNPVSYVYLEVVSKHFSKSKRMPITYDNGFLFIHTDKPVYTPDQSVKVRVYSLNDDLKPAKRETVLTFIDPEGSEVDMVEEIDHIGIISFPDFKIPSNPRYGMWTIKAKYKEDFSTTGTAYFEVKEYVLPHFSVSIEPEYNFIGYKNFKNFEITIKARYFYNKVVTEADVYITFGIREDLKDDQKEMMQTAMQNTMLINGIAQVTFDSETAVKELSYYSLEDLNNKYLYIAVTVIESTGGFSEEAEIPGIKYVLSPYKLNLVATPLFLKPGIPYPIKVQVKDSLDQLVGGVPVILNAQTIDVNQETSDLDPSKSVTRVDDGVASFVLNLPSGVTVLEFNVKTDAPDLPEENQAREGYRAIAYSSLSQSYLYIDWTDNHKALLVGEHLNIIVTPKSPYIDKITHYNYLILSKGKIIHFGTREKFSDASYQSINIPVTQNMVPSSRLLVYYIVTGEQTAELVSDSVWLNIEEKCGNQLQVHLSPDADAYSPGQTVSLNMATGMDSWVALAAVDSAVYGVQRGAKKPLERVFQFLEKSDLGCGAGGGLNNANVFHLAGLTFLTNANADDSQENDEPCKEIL
Complement C5 (human), sequence (chain, as listed by the source, chain 2 of 2): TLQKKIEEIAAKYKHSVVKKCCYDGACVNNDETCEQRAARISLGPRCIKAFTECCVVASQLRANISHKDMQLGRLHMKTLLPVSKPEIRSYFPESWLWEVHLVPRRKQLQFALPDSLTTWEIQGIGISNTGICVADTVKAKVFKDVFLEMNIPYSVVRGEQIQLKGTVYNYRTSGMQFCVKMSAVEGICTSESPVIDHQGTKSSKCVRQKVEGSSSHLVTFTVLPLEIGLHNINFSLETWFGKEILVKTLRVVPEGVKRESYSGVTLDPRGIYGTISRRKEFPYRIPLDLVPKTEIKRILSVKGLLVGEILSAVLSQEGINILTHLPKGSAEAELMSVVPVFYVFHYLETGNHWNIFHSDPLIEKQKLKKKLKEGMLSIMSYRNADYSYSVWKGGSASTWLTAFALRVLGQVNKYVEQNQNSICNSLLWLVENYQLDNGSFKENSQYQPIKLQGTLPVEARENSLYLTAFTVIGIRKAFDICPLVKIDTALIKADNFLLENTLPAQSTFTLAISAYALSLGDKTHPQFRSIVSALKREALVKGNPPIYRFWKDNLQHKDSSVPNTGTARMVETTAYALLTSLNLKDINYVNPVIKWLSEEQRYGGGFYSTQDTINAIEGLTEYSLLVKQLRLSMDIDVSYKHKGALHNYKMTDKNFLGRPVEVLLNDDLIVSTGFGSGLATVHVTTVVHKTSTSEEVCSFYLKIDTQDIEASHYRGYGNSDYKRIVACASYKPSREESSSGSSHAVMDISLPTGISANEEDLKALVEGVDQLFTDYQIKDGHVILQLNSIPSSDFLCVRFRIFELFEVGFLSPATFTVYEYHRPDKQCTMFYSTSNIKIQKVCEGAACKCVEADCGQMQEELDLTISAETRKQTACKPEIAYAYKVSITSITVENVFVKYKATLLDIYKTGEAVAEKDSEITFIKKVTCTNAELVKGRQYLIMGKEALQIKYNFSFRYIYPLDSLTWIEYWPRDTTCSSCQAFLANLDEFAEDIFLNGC
Complement component C6 (human), sequence (chain, as listed by the source): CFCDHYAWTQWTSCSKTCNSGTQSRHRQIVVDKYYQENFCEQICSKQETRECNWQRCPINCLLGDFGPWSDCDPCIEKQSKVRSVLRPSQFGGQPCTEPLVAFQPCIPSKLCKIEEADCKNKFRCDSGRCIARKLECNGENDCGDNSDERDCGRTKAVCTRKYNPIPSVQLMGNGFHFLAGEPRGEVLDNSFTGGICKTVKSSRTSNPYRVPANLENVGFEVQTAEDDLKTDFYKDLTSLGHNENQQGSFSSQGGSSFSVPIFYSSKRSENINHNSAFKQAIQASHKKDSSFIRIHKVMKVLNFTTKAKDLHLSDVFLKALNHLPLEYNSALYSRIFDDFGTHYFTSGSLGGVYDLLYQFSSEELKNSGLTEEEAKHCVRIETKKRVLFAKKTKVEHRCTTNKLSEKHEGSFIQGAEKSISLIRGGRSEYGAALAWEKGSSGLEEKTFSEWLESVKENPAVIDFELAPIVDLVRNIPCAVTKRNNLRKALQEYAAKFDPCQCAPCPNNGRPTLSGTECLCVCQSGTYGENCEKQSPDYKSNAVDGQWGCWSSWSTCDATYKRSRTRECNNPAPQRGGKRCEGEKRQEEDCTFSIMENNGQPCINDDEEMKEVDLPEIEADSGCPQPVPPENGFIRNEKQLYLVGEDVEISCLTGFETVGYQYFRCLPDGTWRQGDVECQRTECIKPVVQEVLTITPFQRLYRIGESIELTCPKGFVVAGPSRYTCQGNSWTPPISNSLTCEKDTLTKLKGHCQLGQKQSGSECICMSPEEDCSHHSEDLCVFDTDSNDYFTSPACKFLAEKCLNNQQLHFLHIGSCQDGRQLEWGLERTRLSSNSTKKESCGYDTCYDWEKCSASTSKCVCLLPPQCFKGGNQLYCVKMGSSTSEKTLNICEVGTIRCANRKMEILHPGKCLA
Complement component C9 (human), sequence (chain, as listed by the source): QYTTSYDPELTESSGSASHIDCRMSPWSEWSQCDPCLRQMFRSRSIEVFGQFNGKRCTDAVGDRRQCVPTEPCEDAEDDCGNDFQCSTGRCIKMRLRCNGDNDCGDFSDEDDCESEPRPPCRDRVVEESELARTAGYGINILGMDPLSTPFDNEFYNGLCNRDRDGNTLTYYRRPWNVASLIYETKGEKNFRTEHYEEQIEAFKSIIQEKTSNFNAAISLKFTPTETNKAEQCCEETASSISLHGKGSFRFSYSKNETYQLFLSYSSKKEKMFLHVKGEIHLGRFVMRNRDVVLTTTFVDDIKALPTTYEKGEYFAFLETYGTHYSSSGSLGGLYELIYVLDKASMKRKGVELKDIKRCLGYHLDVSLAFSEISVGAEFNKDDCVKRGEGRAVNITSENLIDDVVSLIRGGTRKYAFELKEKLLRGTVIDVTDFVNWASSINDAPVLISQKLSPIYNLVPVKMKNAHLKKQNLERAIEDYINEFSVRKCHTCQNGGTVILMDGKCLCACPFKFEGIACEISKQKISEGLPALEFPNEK
Complement component C8 (human), sequence (chain, as listed by the source, chain 1 of 3): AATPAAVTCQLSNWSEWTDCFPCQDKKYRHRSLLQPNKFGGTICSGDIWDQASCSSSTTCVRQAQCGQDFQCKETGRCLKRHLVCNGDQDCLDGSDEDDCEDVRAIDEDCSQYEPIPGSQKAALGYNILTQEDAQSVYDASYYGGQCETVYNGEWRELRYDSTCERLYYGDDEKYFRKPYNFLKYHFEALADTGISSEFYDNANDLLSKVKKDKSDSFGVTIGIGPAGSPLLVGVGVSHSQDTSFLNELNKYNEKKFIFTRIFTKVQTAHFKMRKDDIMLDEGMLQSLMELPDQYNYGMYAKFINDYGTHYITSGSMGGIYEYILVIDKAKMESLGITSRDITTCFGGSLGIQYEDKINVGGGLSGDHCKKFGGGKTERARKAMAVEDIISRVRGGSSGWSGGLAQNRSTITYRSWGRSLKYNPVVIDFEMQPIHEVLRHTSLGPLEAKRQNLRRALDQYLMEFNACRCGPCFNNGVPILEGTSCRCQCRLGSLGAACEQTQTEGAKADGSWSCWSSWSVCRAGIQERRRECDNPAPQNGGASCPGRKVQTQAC
Complement component C8 (human), sequence (chain, as listed by the source, chain 2 of 3): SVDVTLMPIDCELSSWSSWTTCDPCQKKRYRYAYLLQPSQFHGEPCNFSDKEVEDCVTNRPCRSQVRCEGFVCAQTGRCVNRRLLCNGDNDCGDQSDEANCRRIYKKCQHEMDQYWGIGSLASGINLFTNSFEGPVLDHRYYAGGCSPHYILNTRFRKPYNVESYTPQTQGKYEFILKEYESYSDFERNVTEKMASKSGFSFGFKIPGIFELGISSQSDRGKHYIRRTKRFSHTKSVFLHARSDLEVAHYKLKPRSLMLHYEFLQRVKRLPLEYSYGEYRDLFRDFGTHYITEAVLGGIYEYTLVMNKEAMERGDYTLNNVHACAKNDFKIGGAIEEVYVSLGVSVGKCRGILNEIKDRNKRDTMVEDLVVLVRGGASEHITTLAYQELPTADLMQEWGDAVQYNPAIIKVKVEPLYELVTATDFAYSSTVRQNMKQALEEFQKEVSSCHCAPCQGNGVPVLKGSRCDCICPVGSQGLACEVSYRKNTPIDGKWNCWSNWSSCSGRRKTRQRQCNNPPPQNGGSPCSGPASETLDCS
Complement component C8 (human), sequence (chain, as listed by the source, chain 3 of 3): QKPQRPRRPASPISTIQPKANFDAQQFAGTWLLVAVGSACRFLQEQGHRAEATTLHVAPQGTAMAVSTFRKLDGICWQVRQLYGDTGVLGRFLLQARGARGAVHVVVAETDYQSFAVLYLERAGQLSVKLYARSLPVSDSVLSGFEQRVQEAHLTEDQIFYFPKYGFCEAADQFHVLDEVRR

B1: wildtype MT-SP1 protease domain (CB200) (protein)
chain: VVGGTDADEGEWPWQVSLHALGQGHICGASLISPNWLVSAAHCYIDDRGFRYSDPTQWTAFLGLHDQSQRSAPGVQERRLKRIISHPFFNDFTFDYDIALLELEKPAEYSSMVRPICLPDASHVFPAGKAIWVTGWGHTQYGGTGALILQKGEIRVINQTTCENLLPQQITPRMMCVGFLSGGVDSCQGDSGGPLSSVEADGRIFQAGVVSWGDGCAQRNKPGVYTRLPLFRDWIKENTGV
Consider B1, for which the Fraction of Hemolysis (protease-incubated purified complement protein added back to depleted sera) stood at 0 with Complement C2 (human), 0.888 in the series with Complement C5 (human), 0.97 with Complement C4 (human) and 0.00834 in the series with Complement C3 (human). Moreover, the results for the “cleavage in 90% human plasma by Western blot” value in the series with Complement C2 (human) and in the series with Complement C3 (human) were “cleaved C2 in human plasma in a dose-dependent manner” and “none of the tested proteases cleaved C3 in human plasma as compared to the no protease control even at the highest concentration of protease (2000 nM)”, respectively. Moreover, the “fraction C5b-9 generated, Total Complement System Screen (classical and MBL pathways), 1 uM protease in human plasma” value in the series with Complement C2 (human) was “the fraction C5b-9 generated upon complement activation induced by the classical and MBL pathways was almost completely inhibited”. Besides, the “hemolysis (OD415) by protease-preincubated purified complement protein added back to the corresponding depleted sera” value is reported as “resulted in an inhibition of hemolysis as assessed by a reduced OD415 absorbance to levels comparable to the depleted sera control” with Complement C2 (human); “showed no decreased hemolysis as compared to normal sera or the no protease control” in series [1]; “showed no decreased hemolysis as compared to normal sera or the no protease control” in series [2]; “showed no decreased hemolysis as compared to normal sera or the no protease control” in series [3]; “showed no decreased hemolysis as compared to normal sera or the no protease control” in [4]; “showed no decreased hemolysis as compared to normal sera or the no protease control” with Complement C5 (human). Further, the “hemolysis (OD415) by protease-preincubated purified complement protein added back to the corresponding depleted sera” value in the series with Complement C1q (human), with Complement C4 (human) and with Complement C3 (human) was “showed no decreased hemolysis as compared to normal sera or the no protease control” in each case. Besides, the kcat/Km (specificity constant) of cleavage of full length C2, in gel kinetics (SDS-PAGE densitometry time course) with Complement C2 (human) is 19500 M⁻¹ s⁻¹. Further, the kcat/Km (specificity constant), fluorogenic peptide cleavage in the series with Ac-SLGR-AMC stood at 20000 M⁻¹ s⁻¹; with Ac-RQAR-AMC, 1.9e+06 M⁻¹ s⁻¹; in the series with Ac-GLAR-AMC, 64000 M⁻¹ s⁻¹.

B2: modified MT-SP1 CB155 (Y146D/K224F) protease domain (protein)
chain: B1 chain with Y141D, K221F
Turning to B2, the Fraction of Hemolysis (protease-incubated purified complement protein added back to depleted sera) is -0.00104 with Complement C2 (human), 0.943 with Complement C5 (human), 0.944 in the series with Complement C4 (human) and 0.072 in the series with Complement C3 (human). Moreover, the kcat/Km (specificity constant) of cleavage of full length C2, in gel kinetics (SDS-PAGE densitometry time course) with Complement C2 (human) came to 72000 M⁻¹ s⁻¹. The kcat/Km (specificity constant), fluorogenic peptide cleavage with Ac-SLGR-AMC was 3700 M⁻¹ s⁻¹; with Ac-RQAR-AMC, 91000 M⁻¹ s⁻¹; in the series with Ac-GLAR-AMC it was 3500 M⁻¹ s⁻¹.

B3: modified MT-SP1 CB331 (I41D/Y146D/K224L) protease domain (protein)
chain: B1 chain with I26D, Y141D, K221L
For B3, the “C3 Western blot of samples of the alternative hemolysis assay (human plasma)” value (“C3 Western blot” for short) with Complement C3 (human) is listed as “cleave C3 as assessed by decreased C3 product as compared to the no protease treated plasma sample”.

B4: modified MT-SP1 CB387 (Y146D/Q175W/K224L) protease domain (protein)
chain: B1 chain with Y141D, Q169W, K221L
For the protein B4, the “C3 Western blot” value with Complement C3 (human) is “cleave C3 as assessed by decreased C3 product as compared to the no protease treated plasma sample”.

B5: modified MT-SP1 CB42 (Y146E) protease domain (protein)
chain: B1 chain with F92W, Y141E
B5: the Fraction of Hemolysis (protease-incubated purified complement protein added back to depleted sera) was 0.0714 in the series with Complement C2 (human), 1.02 in the series with Complement C5 (human), 1.04 with Complement C4 (human) and 0.122 in the series with Complement C3 (human). For the same protein, in the series with Complement C2 (human), the kcat/Km (specificity constant) of cleavage of full length C2, in gel kinetics (SDS-PAGE densitometry time course) is 36000 M⁻¹ s⁻¹. Besides, the kcat/Km (specificity constant), fluorogenic peptide cleavage in the series with Ac-SLGR-AMC amounted to 59000 M⁻¹ s⁻¹; in the series with Ac-RQAR-AMC, 1.8e+06 M⁻¹ s⁻¹; in the series with Ac-GLAR-AMC, 63000 M⁻¹ s⁻¹.

B6: modified MT-SP1 CB349 (I41D/Y146D/K224F) protease domain (protein)
chain: B1 chain with I26D, Y141D, K221F
As for B6, the “C3 Western blot” value with Complement C3 (human) is reported as “cleave C3 as assessed by decreased C3 product as compared to the no protease treated plasma sample”.
